Data taken from paper PMC4887326 (2016).

What was measured:
[1] = target: YfiB^L43P (residues 34–168), purified alone (P. aeruginosa, UniProt Q9I4L6 34-168, L43P); assay: ITC
[2] = target: YfiB^L43P/F57A (residues 34–168) (P. aeruginosa, UniProt Q9I4L6 34-168, L43P | F57A); assay: ITC

B1: YfiR (residues 35–190), purified alone (domain or fragment)
chain: DDARTSIEQRSNAVSQVLLGIFSYVRWPKEPAVLQLCVVGPTEYADGLLRGMVQANGRRVHAERRAVDNPDLGTLCNVIYLGVVDERERQQVFRSLAGHPVLSISERGTECSVGSMFCLNVGGPRITFEANLDSIARSGVRVHPSVLKLARRQATP
In the case of B1, the Ka [1] is reported as 7.12e+06 M⁻¹ and the Ka [2] is reported as 1.87e+06 M⁻¹.
